Test: soluble on expression in E. coli; label from the status in PepcDB or PDB records

Sequence | soluble on expression in E. coli
MGSDKIHHHHHHMTDDQIHQTDWLQRGRDVLDIEAEGIRAVRDRLGPSFESALALLAGCRGRVVVTGLGKSGLVGRKLAATFSSTGSPAFFLHPVEGAHGDMGSLKADDVVIAISNSGETDELNAILPSLRAIGTPIIALTGRADSSLGRGADIVLDCGVPREACPLGLAPTASTTAVLALGDALAVCLIDWKSFTENDFLRYHPGGSLGQRLRLRVAELMHTEGIPVVNEEAVCEEAVLALDKGGFGAVALTDGGGRLTGILTDGDVRRAVLRGTYGPRVGVTHIMTRNPRFARQTQSVAELIDIMEQKAITVLPITDDDHRLVGLVHLHDLLGKGGVTFAG | not soluble
MGLELEWMPIEDLKLPSNVIEIIKKRGIKKLNPPQTEAVKKGLLEGNRLLLTSPTGSGKTLIAEMGIISFLLKNGGKAIYVTPLRALTNEKYLTFKDWELIGFKVAMTSGDYDTDDAWLKNYDIIITTYEKLDSLWRHRPEWLNEVNYFVLDELHYLNDPERGPVVESVTIRAKRRNLLALSATISNYKQIAKWLGAEPVATNWRPVPLIEGVIYPERKKKEYNVIFKDNTTKKVHGDDAIIAYTLDSLSKNGQVLVFRNSRKMAESTALKIANYMNFVSLDENALSEILKQLDDIEEGGSDEKELLKSLISKGVAYHHAGLSKALRDLIEEGFRQRKIKVIVATPTLAAGVNLPARTVIIGDIYRFNKKIAGYYDEIPIMEYKQMSGRAGRPGFDQIGESIVVVRDKEDVDRVFKKYVLSDVEPIESKLGSERAFYTFLLGILSAEGNLSEKQLENFAYESLLAKQLVDVYFDRAIRWLLEHSFIKEEGNTFALTNFGKRVADLYINPFTADIIRKGLEGHKASCELAYLHLLAFTPDGPLVSVGRNEEEELIELLEDLDCELLIEEPYEEDEYSLYINALKVALIMKDWMDEVDEDTILSKYNIGSGDLRNMVETMDWLTYSAYHLSRELKLNEHADKLRILNLRVRDGIKEELLELVQISGVGRKRARLLYNNGIKELGDVVMNPDKVKNLLGQKLGEKVVQEAARLLNRFH | soluble
MSLQRKRIVRERVVYVLDYMREGNPLDKHKFHRDKPLIQAVGEDYFLLLELTPLSYNLDFLPEDKIELDSNSSVKVDAHISYEDLTSVSRDNLPKILYKIVFEKEKVFVEIFNKAEPLTLRLHALELLPNIGKKTLRIILEERKKKPFESFKDIESRIGVKDVASILVERIIKEMQGGEKYYLFVYPLIPDENKRLEQQFIYVGYIEKLKEGHHHHHH | soluble
MGSDKIHHHHHHMSRNTEATEEVGIWTGGRLNYKEGFFTQLPTDELAKGISEEVVRAISAKRNEPEWMLEFRLNAYRAWLDMDEPHWLKAHYDKLNYQDYSYYSAPSCGNCDDSCVSQPGAVQQTGANTFLSKEVEDAFEQLGVPVREGKEVAVDAIFDSVSVATTYREKLAEQGIIFCSFGEAIHDHPDLVRKYLGTVVPGNDNFFAALNAAVASDGTFIYVPKGVRCPMELSTYFRINAEKTGQFERTILVADEGSYVSYIEGCSAPVRDSYQLHAAVVEVIIHKDAEVKYSTVQNWFPGDNNTGGILNFVTKRALCEGENSKMSWTQSETGSAITWKYPSCILRGDNSIGEFYSVALTSGHQQADTGTKMIHIGKNTRSTIISKGISAGHSQNSYRGLVKIMPTATNARNFTQCDSMLIGADCGAHTFPYVECRNNSAQLEHEATTSRIGEDQLFYCLQRGISEEDAISMIVNGFCKDVFSELPLEFAVEAQKLLAISLEHSVG | not soluble
KRYIPSVNDFVIGVIIGTFSDSYKVSLQNFSSSVSLSYMAFPNASKKNRPTLQVGDLVYARVCTAEKELEAEIECFDSTTGRDAGFGILEDGMIIDVNLNFARQLLFNNDFPLLKVLAAHTKFEVAIGLNGKIWVKCEELSNTLACYRTIMECCQKNDTAAFKDIAKRQFKEILT | soluble
MLMPRRMKYRKQQRGRLKGATKGGDYVAFGDYGLVALEPAWITAQQIEAARVAMVRHFRRGGKIFIRIFPDKPYTKKPLEVRMGKGKGNVEGYVAVVKPGRVMFEVAGVTEEQAMEALRIAGHKLPIKTKIVRRDAYDEAQ | soluble
MSEAKDNGSRDEVLVPHKNCRKNTTVPGKKGEEKSLAPVFAEKLISPSRRGAKLKDRESHQENEDRNSELDQDEEDKESFCRGFPMSGCELETSCCVCHSTALGERFC | soluble
MCILFIAIEQHPKYPLIICANRDEFHQRPTQAMHVWQESNILAGKDLQAGGTWLGLSSTGKFAALTNFRKLPLSEAPKKSRGDLVLQALADTKINMTAELAQQASQYHGFNLIYGSLKQLYCYDSVNNQSHQLSDGVHSICNGALDDIWPKMARGEKLLSETIRSQKNLSIEALFDLMTNDKQALPHLLPETGLDEEWEQLLSAIFIKSPTYGTRTTTIITQDVEGNVETYDRSYAPSGECITKQQFNLATVFDLEHHHHHH | not soluble
MSLSDPIKIGFLAPLTGPVSSWGLPGLHGCRLWEDWLNRAGGILVGGRRYPVSIVPFDCGYDPERAMEGARHLVHTEQVKLLMMLGGDTFTPLRGFLTANKVLTSTLLPSDLSPDTRYLIAPSEVHPIYNVTGVDWLARNRPELRRVAMCSQKDALGLPSIATYRAAFEAAGVPVVKEVEYDPEMTDVATIVQPMLDAQPDVLCWCTSYTPMVHAMTEYAHAKGFSGQILSCTLDNYQRLVARTSAEFMEGALFQFPDFDDPKLARKAFFFNRPSTFFKEYNARYPGNWSAVSWEYVAILDIWHAAVEKVASVHPVSVLATMKQMDPVTHAFGPARWWGEGHHHHHH | not soluble
MSLTKYIFVTGGVVSSIGKGIVAASLGRLLKNRGLKVTIQKFDPYINIDPGTMSPYQHGEVYVTDDGAETDLDLGHYERFIDINLNKYSNVTTGKIYSEVLRKERKGEYLGATVQVIPHITDALKEKIKRAATTTDSDVIITEVGGTVGDIESLPFLEALRQMKADVGADNVMYIHTTLLPYLKAAGEMKTKPTQHSVKELRGLGIQPNMLVIRTEQPAGQGIKNKLAQFCDVAPEAVIESLDVDHLYQIPLNLQAQNMDQIVCDHLKLDVPVADMTEWSAMVDKVMNLKKKTKIALVGKYVELPDAYLSVVEALKHSGYVNDTAIDLNWINANEVTPETVTDLLGDADGIIVPGGFGHRGTEGKIEAIRYARENDVPMLGICLGMQLTCVEYARHVLNLEGANSAELDPDTKYPVIDIMRDQIDIEDMGGTLRLGLYPCKLKSGSKTASAYSNQEVVQRRHRHRYEFNNAFRQQFEEAGFVFSGVSPDNRLVEVVELSDKKFFVAAQYHPELQSRPNRPEELYTAFITAAVENSQAHEGHHHHHH | soluble
MGSDKIHHHHHHMVIVARCNHNGSNLTEQFPPINDIRSNSRQLVRELGFMGGDFAGTDLPPSSVHALIEIEACPGITAKDLGKLLRLEKSSVSRMLRKLILSGDIVEQTDDVDSRIKRLRLTGQGREKVSGINGFANRQVSGALAQLTATDAHTILEGLRLYAGALGARTGTPASTVDIKQGYRPGIIARITQMHALYYARTSGFGQRFESVVAEGLAAFCNRLENPRNAIWVAMRGQEIIGSVAIDGEDLGADIAHLRWFIVDDGIRGGGVGRRLLATALAFADQAGFAETHLWTFNGLLAARHLYETHGFTCTEEYPGSQWGSEVLEQRFIRPRPE | not soluble
MSPTVRTARHDDYDDIVDLTSDVWADRAMADYIPDVFRDWVDDDGPNRKTLVVDVDGHAVGLAQAVILTETEAWFQGMRVDSDHRGKGFGSLLTEHLIEWAADAGASVGRSMVFSWNEAGLGQSLAAGFEAVTSFRWAHPDPADETPEMTVRNDPTNAWRYWQESDGRGVLSGLALDSGESWALSTLTRETLDRLAADQTVLTIGDDGPQGMACRVRTTDADGEQLAEYAVGVWSDVDAARALFTAIAADAATLGVDGTRVLIPETPRHVAQAAYASGNIDECPDFVLEIDGLEELS | not soluble
MAHHHHHHMAAPSHQHSLVLERSTCHHYYHCVLYDILFDLPVREIAAQVVPCKDSNIVQRLTSADCRVVPHQLHVYKEPLEKKFGYVSFFVHRAPHSSTAADDVHRLVCEWVAVDLASQLATVQCKVQLAQPPECHSSEPFLNAFRLKCPLLDPTLAADTKKLETFVLTRVRFGQHCGNASVNQLNAVHCDDAKSAASAGSCGTETEMCTDDGLTATEGELDAGARSATRTLDEHVWKCVGTFLIASLSPKELVWLKKQLPSFPPLRIANGDMDTAYCDEAKLAQFFETSLAPLFTVDEVVEAAALNTVNSEA | not soluble
MPNFFKFHTVIERHWQKPYPVLSFLLKPLSGLFAKIAAKWRADFLSGKRQSEKLSVPVVVVGNIHAGGTGKTPIAAALVSGLQEKGVKVGIISRGYGRKSKAVYVLNAASRAEDAGDEPLLLFRKTGAPTAVGSSRVEAGRALLAAHPELELIVADDGLQHYALQRDVEIAVFPAADTGRTDLDLLPNGNLREPLSRLESVDAVVVGGRAADGFMPSEHLFGSRIEAGAVYRLNRPSEKLDISTLSGKRVAAVAGIARPQRFFDTLTHMGIRLDQTVALPDHADIFNRDLPPADVVLVTEKDAVKFSDGICTDNVWVLPVCAIIEPDLAEFVLERLEGVPKAVLEHHHHHH | not soluble
MSLKRILLSSDRSGSGKTLITSAIMRALSKKYKVRGFKAGPDFIDPGYHKIATGFPSINLDLWMMGKNNVKRSLAKYGKEFDIGIIEGVMGLYDGVDTLYSTYELAKVTKTPIILIINCSNIGSTVGAIVKGLKYYRSDVSIRGVIFNKIASETHYNYCRNAVEDVEVLGYVPFDKNLEIKSRHLGLVTVEDNREVQNLIRYASELVEKYVDLDKIYEMASDEDLEIDLPEDNESNGVKRKMAIAYDPAFSFYYQENLDILKNKYELEFFSPLNNEYVEDAEAIYIGGGYPELHLNELEKSTRTKKWLKNMSYAGVKIYAECGGLMYLSKNLIDENNKNHSMTGIFDIDIKTKDKLTIGYTELEAVKENFIVNKNNVVRGHEFHVSKPISVNEKEFVFKVRIGKGIINKLDGVKSNNTVASYSHLHFSNFQLRIVFEGHHHHHH | not soluble
MNQHNTRLIRLPEVLHRTGYGKAWIYHLINQNRFPSPVKIGARSVAFIESEVDEWIQLTIENSRKHVA | soluble
MTISLRRTGILKFGIGLVALTIAASVQAKTLVYCSEGSPEGFNPQLFTSGTTYDASSVPIYNRLVEFKIGTTEIEPSLAERWEVSEDGKTYTFYLRKGVKWQDNKDFKPTRDFNADDVIYSFMRQKDDKNPYHKVSGGSYEYFQGMGMGDLITNVVKVDDNTVRFELTRPESPFLADLAMDFASILSAEYADNMLKAGTPEKVDLNPIGTGPFQLQQYQKDSRILYKAFPGFWGTKPKIDRLVFSITPDASVRYAKLQKNECQIMPYPNPADIARMKEDKTINLMEQPGLNVGYLSFNIEKKPLDNLKVRQALTMAVNKDAIIDAVYQGAGQAAKNLIPPTMWGYNDDVKDYAYDPAKAKELLKEAGLPDGFSIDLWAMPVQRPYNPNARRMAEMIQSDWAKIGVKAKIVTYEWGEYLKRAKDGEHETVMMGWTGDNGDPDNFFATLFSCDAAKQGSNYSKWCYKPFEDLIQPARAEADHDKRVALYKQAQVVMNEQAPALIIAHSTVYEPVRKEVKGYVVDPLGKHHFDNVSLD | not soluble

From the DeepSol protein solubility set
